From patent publication US20190248902A1 (published 2019)
Residue numbers refer to the chain shown, from its start.

T1: human ASGR-1 (wild type) (human, UniProt P07306 1-291)
T1 construct: also called wt ASGR1; huASGR-1
T1 sequence: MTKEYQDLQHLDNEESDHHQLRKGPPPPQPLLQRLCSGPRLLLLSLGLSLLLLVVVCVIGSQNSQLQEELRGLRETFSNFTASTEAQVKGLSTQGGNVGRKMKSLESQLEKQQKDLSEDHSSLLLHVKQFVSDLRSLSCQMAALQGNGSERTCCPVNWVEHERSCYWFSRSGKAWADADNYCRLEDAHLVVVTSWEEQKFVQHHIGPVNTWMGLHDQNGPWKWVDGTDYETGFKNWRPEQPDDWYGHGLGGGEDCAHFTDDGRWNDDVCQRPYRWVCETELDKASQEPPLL

T2: human ASGR-1 mutant construct H203 (human, UniProt P07306 1-291)
T2 construct: Arg/Glu scanning: non-arginine residues were changed to arginine; Transiently expressed on CHO-S cells
T2 sequence: T1 sequence with H203R

B1: 48B12 (antibody, V domains shown)
VH: EVQLLESGGGLVQPGGSLRLSCAASGFTFSSYAMNWVRQAPGKGLEWVSAISGRGGNTFYADSVKGRFTISRDNSKNTLYLQMNSLRAEDTAVYYCAKRETYNWNYEGFDYWGQGTLVTVSS
VL: SYELTQPPSVSVSPGQTARITCSGDALPKKYAYWYQQKSGQAPVLVIYEDSKRPSGIPERFSGSSSGTMATLTISGAQVEDEADYYCNSTDSSGNHVVFGGGTKLTVL
notes: mAb
B2: 5E5 (antibody, V domains shown)
VH: QVQLVESGGGVVQPGRSLRLSCAASGFTFSNYVMHWVRQAPGKGLEWVAVIWYDGSNKYYADSVKGRFTISRDNSKNTLYLQMNSLRAEDTAVYYCTREVYSSGWYDYGMDVWGQGTTVTVSS
VL: DIQMTQSPSSLSASVGDRVTITCRASQGIRNDLGWYQQKPGKAPKRLIYAASSLQSGVPSRFSGSGSGTEFTLTISSLQPEDFATYYCLQHYSYPRTFGQGTKVEVK
notes: mAb
B3: 7G4 (antibody, V domains shown)
VH: B2 VH with S30N, N84T, T97A, V100K, G104N
VL: B2 VL with K39R, F83S, Q90H, H91Q, V106I
notes: mAb
B4: 22G5 (antibody, V domains shown)
VH: EVQLLESGGGLVQPGGSLRLSCAASGFTFSSYAMNWVRQAPGMGLEWVSVISRSGGYTYYADSVKGRFTISRDNSKNTLYLQMNSLRAEDTAVYYCASRLAVAGSEAFDIWGQGTLVTVSS
VL: DIQMTQSPSSLSASVGDRVTITCRASQNISSYLNWYQQKQGKAPKLLIYAASSLQNGVPSRFSGRGSGTDFTLTISSLQPEDFATYYCQQSYRTPLFTFGPGTKVDFK
notes: mAb
B5: 7E11 (antibody, V domains shown)
VH: QVQLVESGGGVVQPGRSLRLSCAASGFTFSSFGMHWVRQAPGKGLEWVAIIWHDGSNKYYADSVKGRFTISRDNSNNTLYLQMSSLRAEDTAVYYCARDLSMGGMDVWGQGTTVTVSS
VL: DIQMTQSPSSLSASVGDRVTIACRASQNIISYLNWYQQKPGKAPKFLIYTASSLQSGVPSRFSGSGSGTDFTLTISSLQPEDFAIYYCQQTYSTPLTFGGGTKVEIK
notes: mAb
B6: 4A2 (antibody, V domains shown)
VH: QVQLVQSGTEVKKPGASVKVSCKASGYTFTNYDINWVRQATGQGLEWMGWMHPNSGNTGYAQKFQGRVTLTRNTSISTAYMELSSLRSEDTAVYYCASSSGWYYFDYWGQGTLVTVSS
VL: DIVMTQSPDSLAVSLGERATINCKSSQSILHSSNNNNYLAWFQQKPGQPPKLLLYWASTRESGVPDRFSGSGSGTDFTLTISSLQPEDVAVYYCQQYYNTPVTFGPGTKVGIK
notes: mAb
B7: 25A4 (antibody, V domains shown)
VH: B6 VH with Q3L, T9A, K13R, H52Y, L70M
VL: DIVMTQFPDSLAVSLGERATIKCKSSQSVLYSSHNNNYLAWYQQKPGQPPKLLLYWASTRESGVPDRFSGSGSGTEFTLTISSLEAEDVAVYYCQQYYSTPPTFGQGTKVEIK
notes: mAb
B8: 26C4 (antibody, V domains shown)
VH: B6 VH with T9A, T41S, H52N, K63R, L70M, S77N
VL: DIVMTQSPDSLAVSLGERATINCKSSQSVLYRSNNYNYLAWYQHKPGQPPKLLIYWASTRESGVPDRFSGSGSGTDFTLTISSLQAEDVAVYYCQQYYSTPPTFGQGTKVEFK
notes: mAb
B9: 29H8 (antibody, V domains shown)
VH: B6 VH with T9A, K12Q, H52N, K63R, L70M, T78A
VL: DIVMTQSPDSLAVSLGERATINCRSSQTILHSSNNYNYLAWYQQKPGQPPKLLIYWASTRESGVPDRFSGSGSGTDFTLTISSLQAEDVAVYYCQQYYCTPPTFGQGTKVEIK
notes: mAb
B10: 184E7 (antibody, V domains shown)
VH: QVQLVQSGAEVKTPGASVKVSCRASGYTFTSYNMHWVRQVPGQGLEWMGWINPNNGGSNYTQKFQGRVTMTRDTSISTAYMELSRLRSDDTAVYYCARKFGDWGQGTLVTVSS
VL: DIQMTQSPSSRSASIGERVTITCRASQGISNYLAWIQQKPGTAPKSLIYAASSLQSGVSSRFSGSGFGTDFTITISSVQREDFATYYCQQYNGYPFTFGHGTKVDIK
notes: mAb
B11: 190F8 (antibody, V domains shown)
VH: QVQLVESGGGVVQPGRSLRLSCAASGFTFSTYGMHWVRQAPGKGLEWVAVIWYDGSNKNYADSVKGRFTISRDNSKNTLYLQMNSLRAEDTAVYYCARDQGVGYDGLDVWGQGTTVTVSS
VL: DIQMTQSPSSLSASVGDRVTITCRTSQGIGNYLAWFQQKPGKAPKSLLYKASSLQSGVPSKFSGSGSGTDFTLTISSLQPEDFATYYCQQYMTYPLTFGGGTKVEIK
notes: mAb
B12: 191G1 (antibody, V domains shown)
VH: B11 VH with T31S, K58E, N59H, Q100R, D105Y
VL: B11 VL with T25A, G30S, L48I, K50A, Q90H, M92L
notes: mAb
B13: 191G10 (antibody, V domains shown)
VH: B11 VH with T31S
VL: B11 VL with N31K, A51V
notes: mAb
B14: 194A4 (antibody, V domains shown)
VH: QVQLVQSGTEVKKPGASLKVSCKASGYTFTVYYLNWVRQAPGQGLEWMGWINPNSGGTNYAQKFQGRVTMTRDTSISTAYMELSRLRSDDTAVYYCARGYDILTGWGQGTLVTVSS
VL: EIVLTQSPGTLSLSPGERATLSCRASRGVSNIYLAWYQQKPGQAPRLLIYGASNRATGIPDRFSGSGSGTDFTLTISRLEPEDFAVYYCQHNDYSMFTFGPGTKVDIK
notes: mAb
B15: 56E5 (antibody, V domains shown)
VH: QVQLVQSGAEVKKPGASVKVSCQASGYTFTGYHMHWVRQAPGQGLEWMGWINPNNNATNYAQKFQGRVTMTRDTSISTAYMELRRLRSDDTAVYHCARDGTSSFDYWGQGTLVTVSS
VL: DIQMTQSPSSVSASVGDRVTITCRASQGIRKWLAWYQQKPGKAPKLLIYAASSLQSGVPSRFSGSGSGTDFTLTISSLQPEDFATYYCQQANSFPFTFGPGTKVDIK
notes: mAb
B16: 72G9 (antibody, V domains shown)
VH: EVQLVESGGGLVKPGGSLRLSCAASGFTFSSYSMNWVRQAPGKGLEWVSSISGSSSYIYYADSVKGRFTISRDNAKNSLYLQMNSLRAEDTAVYFCARGGSRGFDPWGQGTLVTVSS
VL: B15 VL with V11L, G28S, R30T, K31S, W32Y, A34N, A50T, A91S, N92H
notes: mAb
B17: 6G7 (antibody, V domains shown)
VH: QVQLVESGGGVVQPGRSLRLSCAASGFTFSSYGMHWVRQTPGKGLEWVAIISYVGKNKYYADSVKGRFTISRDNSKNTLYLQMNSLRAEDTAVYYCARRGNSYGGYGMDVWGQGTTVTVSS
VL: DIQMTQSPSSRSASVGDRVTITCQASQDISNYLNWCQQKPGKALKLLIYDASTLETGVPSRFSGSGSGTDFTFTISSVQPEDIATYYCQQYDNVPITFGQGTRLEIK
notes: mAb

target: T1, human ASGR-1 (wild type); assay: FACS, transfected CHO-S cells, mAb 5 ug/ml
Outline: (§1)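 Transiently transfected CHO-S cells expressing wild-type or mutant hASGR-1 incubated with antibody at 5 ug/ml, 1 h at 4 °C; bound antibody detected by Alexa Fluor 647 anti-Fc plus 7-AAD, by flow cytometry. Binding normalized to expression using an unaffected antibody (65C12), then to wild type; hits defined as >3× IQR above third quartile.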

| FACS Binding Geomean | Binder |
| --- | --- |
| 52500 | B1 |
| 40700 | B2 |
| 48500 | B3 |
| 45000 | B4 |
| 45500 | B5 |
| 41100 | B6 |
| 55600 | B7 |
| 46000 | B8 |
| 40900 | B9 |
| 42700 | B10 |
| 36500 | B11 |
| 25300 | B12 |
| 33800 | B13 |
| 16300 | B14 |
| 42600 | B15 |
| 36500 | B16 |
| 38600 | B17 |

target: T2, human ASGR-1 mutant construct H203; assay: FACS, transfected CHO-S cells, mAb 5 ug/ml
Outline: as §1

| FACS Binding Geomean | Binder |
| --- | --- |
| 20500 | B1 |
| 12600 | B2 |
| 18500 | B3 |
| 15100 | B4 |
| 14700 | B5 |
| 18900 | B6 |
| 20000 | B7 |
| 13500 | B8 |
| 13200 | B9 |
| 18400 | B10 |
| 15100 | B11 |
| 10900 | B12 |
| 17000 | B13 |
| 12100 | B14 |
| 20300 | B15 |
| 18800 | B16 |
| 15100 | B17 |

target: T1, human ASGR-1 (wild type); assay: FACS ratio: 65C12 geomean / this mAb geomean
Outline: (§2)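 Value is the geomean of reference antibody 65C12 divided by that of the test mAb, correcting for construct expression. Binding was measured by flow cytometry on transiently transfected CHO-S cells after 1 h at 4 °C with antibody at 5 ug/ml. Detection used an anti-Fc Alexa 647 secondary, with 7-AAD to exclude dead cells.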

| Expression Normalization to mAb 65C12 | Binder |
| --- | --- |
| 1.07 | B1 |
| 1.38 | B2 |
| 1.16 | B3 |
| 1.24 | B4 |
| 1.23 | B5 |
| 1.36 | B6 |
| 1.01 | B7 |
| 1.22 | B8 |
| 1.37 | B9 |
| 1.31 | B10 |
| 1.54 | B11 |
| 2.22 | B12 |
| 1.66 | B13 |
| 3.44 | B14 |
| 1.32 | B15 |
| 1.54 | B16 |
| 1.45 | B17 |

target: T2, human ASGR-1 mutant construct H203; assay: FACS ratio: 65C12 geomean / this mAb geomean
Outline: as §2

| Expression Normalization to mAb 65C12 | Binder |
| --- | --- |
| 1.26 | B1 |
| 2.04 | B2 |
| 1.39 | B3 |
| 1.71 | B4 |
| 1.75 | B5 |
| 1.36 | B6 |
| 1.29 | B7 |
| 1.91 | B8 |
| 1.95 | B9 |
| 1.4 | B10 |
| 1.71 | B11 |
| 2.37 | B12 |
| 1.51 | B13 |
| 2.12 | B14 |
| 1.27 | B15 |
| 1.37 | B16 |
| 1.71 | B17 |
